Experimental findings from PMC7267771 are described below.

In test [1] the target is biotin-labeled UB2H domain of P. aeruginosa PBP1B (P. aeruginosa). The test can be described thus: BLI; UB2H-Biot (25 μg/ml) immobilised on streptavidin biosensors (OctetRED96e); LpoP 0 to 6 μM; HBS-T (10 mM Hepes pH 7.5, 150 mM NaCl, 0.02% Tween); 23°C; responses at equilibrium of two series fitted together.
Test [2] concerns the target P. aeruginosa PBP1B (P. aeruginosa PA01).
Test [3] shares this target. The test can be described thus: SPR; PaPBP1B immobilised on a GLC amine coupling sensorchip (BioRad ProteOn XPR36); analyte in 1:1 serial dilution from 10 μM to 19.5 nM; 25°C; 75 μL/min, 5 min injection; 10 mM Tris/HCl, 150 mM NaCl, 0.05% Triton X-100, pH 7.5; response at equilibrium, non-linear regression assuming one-site saturation.
Test [4] deals with P. aeruginosa CpoB lacking its periplasmic export sequence (residues 22-274) (P. aeruginosa PA01). Kind of test: SEC; PaCpoB alone, last step of its purification, procedure as for LpoP.

biotin-labeled UB2H domain of P. aeruginosa PBP1B (P. aeruginosa), sequence (main, as listed by the source): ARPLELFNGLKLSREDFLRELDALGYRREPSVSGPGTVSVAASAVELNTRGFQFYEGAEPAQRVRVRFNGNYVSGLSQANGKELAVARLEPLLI

As to “LpoP (residues 20-259), preparation for NMR and BLI (natural protein)”, the Kd in test [1] turned out to be 400 nM. Consider “LpoP lacking its lipoprotein sorting sequence (residues 20-259) (natural protein)”, for which, in test [2], the GTase rate of PaPBP1B with and without LpoP (continuous fluorescence assay, 0.5 μM PaPBP1B, 10 μM LpoP, 37°C) is 4.5 fold; the transpeptidation products made by PaPBP1B with and without LpoP (endpoint TPase assay with radiolabelled lipid II, 10 μM LpoP, 37°C, 3 h) was determined as 2 fold. For the same substance, the Kd in test [3] turned out to be 4200 nM. For the substance “P. aeruginosa CpoB lacking its periplasmic export sequence (residues 22-274) (natural protein)”, the stoichiometry N in test [4] is 3.
